In PMC10786891, “Massively parallel profiling of RNA-targeting CRISPR-Cas13d”:
Positions count from the first letter of the chain named. In names and notes the source's numbering stands.

T1: EsCas13d, nuclease-dead (Eubacterium siraeum, UniProt B0MS50, R295A;H300A;R849A;H854A)
T1 sequence: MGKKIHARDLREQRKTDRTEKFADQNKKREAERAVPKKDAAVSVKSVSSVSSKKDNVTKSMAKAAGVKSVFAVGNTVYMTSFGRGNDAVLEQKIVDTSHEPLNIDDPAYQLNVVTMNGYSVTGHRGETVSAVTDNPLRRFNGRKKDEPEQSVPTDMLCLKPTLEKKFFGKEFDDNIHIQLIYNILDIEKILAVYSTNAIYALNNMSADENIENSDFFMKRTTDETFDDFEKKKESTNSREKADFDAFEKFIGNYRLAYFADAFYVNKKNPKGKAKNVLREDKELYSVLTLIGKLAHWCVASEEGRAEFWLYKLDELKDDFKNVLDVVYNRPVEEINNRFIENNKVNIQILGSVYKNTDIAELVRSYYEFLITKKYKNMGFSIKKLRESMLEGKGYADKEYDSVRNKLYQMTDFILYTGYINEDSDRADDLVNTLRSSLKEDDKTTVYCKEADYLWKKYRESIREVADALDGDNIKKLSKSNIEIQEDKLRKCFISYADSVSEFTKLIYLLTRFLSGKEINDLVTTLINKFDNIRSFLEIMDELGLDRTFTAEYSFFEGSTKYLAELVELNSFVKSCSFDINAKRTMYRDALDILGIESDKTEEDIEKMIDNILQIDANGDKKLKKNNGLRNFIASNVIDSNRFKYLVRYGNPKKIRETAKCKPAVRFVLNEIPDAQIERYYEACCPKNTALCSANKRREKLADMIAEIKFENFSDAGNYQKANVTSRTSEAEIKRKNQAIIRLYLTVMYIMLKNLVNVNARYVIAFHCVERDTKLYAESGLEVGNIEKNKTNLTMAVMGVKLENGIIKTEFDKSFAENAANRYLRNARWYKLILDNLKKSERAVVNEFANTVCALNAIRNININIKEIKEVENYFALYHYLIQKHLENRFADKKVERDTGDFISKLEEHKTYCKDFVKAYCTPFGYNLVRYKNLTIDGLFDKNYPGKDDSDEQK

B1: target 1 MT 5'PFS GGC 3'PFS CUA (mixed)
RNA 1: CACCCGUGCAAAAAUGCAGGGGUCUAAAACUGAGCGGAUAACCUCUCUAUGG
RNA 2: GGGAAUGGAUCCACAUCUACGAAUUCGGCCCAUAGAGAGGUUAUCCGCUCACUAAGAUCGGAAGAGCACACGU
B2: target 1 MT 5'PFS GGG 3'PFS ACC (mixed)
RNA 1: B1 RNA 1
RNA 2: B1 RNA 2 with C29G, C52A, U53C, A54C
B3: target 1 MT 5'PFS GGG 3'PFS CCG (mixed)
RNA 1: B1 RNA 1
RNA 2: B1 RNA 2 with C29G, U53C, A54G
B4: target 1 MT 5'PFS GCU 3'PFS GCU (mixed)
RNA 1: B1 RNA 1
RNA 2: B1 RNA 2 with G28C, C29U, C52G, U53C, A54U
B5: target 1 MT 5'PFS UAU 3'PFS ACU (mixed)
RNA 1: B1 RNA 1
RNA 2: B1 RNA 2 with G27U, G28A, C29U, C52A, U53C, A54U
B6: target 1 MT 5'PFS UAG 3'PFS AGU (mixed)
RNA 1: B1 RNA 1
RNA 2: B1 RNA 2 with G27U, G28A, C29G, C52A, U53G, A54U
B7: target 1 MT 5'PFS GGC 3'PFS CUG (mixed)
RNA 1: B1 RNA 1
RNA 2: B1 RNA 2 with A54G
B8: target 1 MT 5'PFS AGU 3'PFS UUG (mixed)
RNA 1: B1 RNA 1
RNA 2: B1 RNA 2 with G27A, C29U, C52U, A54G
B9: target 1 MT 5'PFS UAG 3'PFS AGA (mixed)
RNA 1: B1 RNA 1
RNA 2: B1 RNA 2 with G27U, G28A, C29G, C52A, U53G
B10: target 1 MT 5'PFS UGC 3'PFS CCG (mixed)
RNA 1: B1 RNA 1
RNA 2: B1 RNA 2 with G27U, U53C, A54G
B11: target 1 MT 5'PFS GCC 3'PFS CAC (mixed)
RNA 1: B1 RNA 1
RNA 2: B1 RNA 2 with G28C, U53A, A54C
B12: target 1 MT 5'PFS CUU 3'PFS ACU (mixed)
RNA 1: B1 RNA 1
RNA 2: B1 RNA 2 with G27C, G28U, C29U, C52A, U53C, A54U
B13: target 1 MT 5'PFS GAC 3'PFS AGA (mixed)
RNA 1: B1 RNA 1
RNA 2: B1 RNA 2 with G28A, C52A, U53G
B14: target 1 MT 5'PFS GUC 3'PFS UUU (mixed)
RNA 1: B1 RNA 1
RNA 2: B1 RNA 2 with G28U, C52U, A54U
B15: target 1 MT 5'PFS GCC 3'PFS CAU (mixed)
RNA 1: B1 RNA 1
RNA 2: B1 RNA 2 with G28C, U53A, A54U
B16: target 1 A9G,U10G (mixed)
RNA 1: B1 RNA 1
RNA 2: B1 RNA 2 with G28U, C29A, U42G, A43G, U53C, A54G
B17: target 1 MT 5'PFS GCC 3'PFS ACG (mixed)
RNA 1: B1 RNA 1
RNA 2: B1 RNA 2 with G28C, C52A, U53C, A54G
B18: target 1 MT 5'PFS UGC 3'PFS CCU (mixed)
RNA 1: B1 RNA 1
RNA 2: B1 RNA 2 with G27U, U53C, A54U
B19: target 1 MT 5'PFS GGG 3'PFS CCC (mixed)
RNA 1: B1 RNA 1
RNA 2: B1 RNA 2 with C29G, U53C, A54C
B20: target 1 MT 5'PFS GUC 3'PFS UUA (mixed)
RNA 1: B1 RNA 1
RNA 2: B1 RNA 2 with G28U, C52U
B21: target 1 MT 5'PFS GGG 3'PFS AAG (mixed)
RNA 1: B1 RNA 1
RNA 2: B1 RNA 2 with C29G, C52A, U53A, A54G
B22: target 1 MT 5'PFS GAC 3'PFS AGC (mixed)
RNA 1: B1 RNA 1
RNA 2: B1 RNA 2 with G28A, C52A, U53G, A54C
B23: target 1 MT 5'PFS ACA 3'PFS UGU (mixed)
RNA 1: B1 RNA 1
RNA 2: B1 RNA 2 with G27A, G28C, C29A, C52U, U53G, A54U
B24: target 1 MT 5'PFS ACA 3'PFS UGA (mixed)
RNA 1: B1 RNA 1
RNA 2: B1 RNA 2 with G27A, G28C, C29A, C52U, U53G
B25: target 1 MT 5'PFS CUU 3'PFS AAA (mixed)
RNA 1: B1 RNA 1
RNA 2: B1 RNA 2 with G27C, G28U, C29U, C52A, U53A
B26: target 1 MT 5'PFS UAU 3'PFS ACC (mixed)
RNA 1: B1 RNA 1
RNA 2: B1 RNA 2 with G27U, G28A, C29U, C52A, U53C, A54C
B27: target 1 MT 5'PFS GGA 3'PFS CAU (mixed)
RNA 1: B1 RNA 1
RNA 2: B1 RNA 2 with C29A, U53A, A54U
B28: target 1 MT 5'PFS UCA 3'PFS UGU (mixed)
RNA 1: B1 RNA 1
RNA 2: B1 RNA 2 with G27U, G28C, C29A, C52U, U53G, A54U
B29: target 1 MT 5'PFS GCU 3'PFS AAC (mixed)
RNA 1: B1 RNA 1
RNA 2: B1 RNA 2 with G28C, C29U, C52A, U53A, A54C
B30: target 1 MT 5'PFS GGG 3'PFS CCU (mixed)
RNA 1: B1 RNA 1
RNA 2: B1 RNA 2 with C29G, U53C, A54U
B31: target 1 MT 5'PFS UGC 3'PFS CCC (mixed)
RNA 1: B1 RNA 1
RNA 2: B1 RNA 2 with G27U, U53C, A54C
B32: target 1 MT 5'PFS UUG 3'PFS ACU (mixed)
RNA 1: B1 RNA 1
RNA 2: B1 RNA 2 with G27U, G28U, C29G, C52A, U53C, A54U
B33: target 1 MT 5'PFS UAU 3'PFS ACA (mixed)
RNA 1: B1 RNA 1
RNA 2: B1 RNA 2 with G27U, G28A, C29U, C52A, U53C
B34: target 1 insU 3' of 7,insA 3' of 3 (mixed)
RNA 1: B1 RNA 1
RNA 2: GGGAAUGGAUCCACAUCUACGAAUUCGUACCAUAGAGAGGUUAUCUCGCUACACCGAGAUCGGAAGAGCACACGU
B35: target 1 MT 5'PFS GCU 3'PFS AAU (mixed)
RNA 1: B1 RNA 1
RNA 2: B1 RNA 2 with G28C, C29U, C52A, U53A, A54U
B36: target 1 C6G,G13A (mixed)
RNA 1: B1 RNA 1
RNA 2: B1 RNA 2 with G28U, C29A, G39A, C46G, U53C, A54G
B37: target 1 MT 5'PFS CUU 3'PFS UCU (mixed)
RNA 1: B1 RNA 1
RNA 2: B1 RNA 2 with G27C, G28U, C29U, C52U, U53C, A54U
B38: target 1 MT 5'PFS GCU 3'PFS UGA (mixed)
RNA 1: B1 RNA 1
RNA 2: B1 RNA 2 with G28C, C29U, C52U, U53G
B39: target 1 insC 3' of 16,insA 3' of 4 (mixed)
RNA 1: B1 RNA 1
RNA 2: GGGAAUGGAUCCACAUCUACGAAUUCGUACCAUAGACGAGGUUAUCCGCAUCACCGAGAUCGGAAGAGCACACGU
B40: target 1 MT 5'PFS GCU 3'PFS UGC (mixed)
RNA 1: B1 RNA 1
RNA 2: B1 RNA 2 with G28C, C29U, C52U, U53G, A54C

target: T1, EsCas13d, nuclease-dead; experiment: crRNA (strand 1, pre-loaded); Mg2+; 40 mM Tris-HCl pH 7.5, 150 mM NaCl, 6 mM MgCl2, 1 mM DTT, 0.1% Tween-20, 0.2 mg/ml BSA; 25 C; 10 min per concentration, then washed; conditions: tags: His6-TwinStrep-SUMO cleaved; N-terminal SNAP kept (SNAP-Surface 488); label: 3' end held by stalled T7 RNA polymerase

**Q.** Which Kd does the source give for B1 here?
**A.** 15.2 ± 4.25 nM

**Q.** With B2 as the binder, how does the Kd read?
**A.** 25.5 ± 8.5 nM

**Q.** With B3 as the binder, how does the Kd read?
**A.** 15.1 ± 3.45 nM

**Q.** B4 was tested. Which Kd did it give?
**A.** 17 ± 5 nM

**Q.** For B5, which Kd is on record?
**A.** 29 ± 5 nM

**Q.** With B6 as the binder, how does the Kd read?
**A.** 56.5 ± 16 nM

**Q.** With B7 as the binder, how does the Kd read?
**A.** 17.3 ± 4 nM

**Q.** B8 was tested. Which Kd did it give?
**A.** 47 ± 17 nM

**Q.** B9 was tested. Which Kd did it give?
**A.** 30 ± 5.5 nM

**Q.** For B10, which Kd is on record?
**A.** 11.8 ± 3.85 nM

**Q.** How did the Kd turn out when B11 was run?
**A.** ~34 nM

**Q.** How did the Kd turn out when B12 was run?
**A.** 29.5 ± 10.5 nM

**Q.** How did the Kd turn out when B13 was run?
**A.** 28 ± 14 nM

**Q.** For B14, which Kd is on record?
**A.** 15.1 ± 4.3 nM

**Q.** Which Kd does the source give for B15 here?
**A.** ~12 nM

**Q.** With B16 as the binder, how does the Kd read?
**A.** 37 ± 4 nM

**Q.** For B17, which Kd is on record?
**A.** 13.9 ± 3.7 nM

**Q.** B18 was tested. Which Kd did it give?
**A.** 15.5 ± 4.5 nM

**Q.** With B19 as the binder, how does the Kd read?
**A.** ~50 nM

**Q.** How did the Kd turn out when B20 was run?
**A.** 12.2 ± 2.45 nM

**Q.** B21 was tested. Which Kd did it give?
**A.** 23.9 ± 3.25 nM

**Q.** With B22 as the binder, how does the Kd read?
**A.** 13.6 ± 2.6 nM

**Q.** With B23 as the binder, how does the Kd read?
**A.** 45 ± 12 nM

**Q.** Which Kd does the source give for B24 here?
**A.** 15.5 ± 4.5 nM

**Q.** B25 was tested. Which Kd did it give?
**A.** ~70 nM

**Q.** For B26, which Kd is on record?
**A.** 36 ± 15 nM

**Q.** For B27, which Kd is on record?
**A.** 50.5 ± 18 nM

**Q.** B28 was tested. Which Kd did it give?
**A.** 28.5 ± 5 nM

**Q.** For B29, which Kd is on record?
**A.** ~80 nM

**Q.** Which Kd does the source give for B30 here?
**A.** 18.5 ± 7 nM

**Q.** How did the Kd turn out when B31 was run?
**A.** ~23 nM

**Q.** How did the Kd turn out when B32 was run?
**A.** 21 ± 5 nM

**Q.** With B33 as the binder, how does the Kd read?
**A.** 54 ± 20.5 nM

**Q.** B34 was tested. Which Kd did it give?
**A.** 20.4 ± 1.3 nM

**Q.** B35 was tested. Which Kd did it give?
**A.** ~82.5 nM

**Q.** Which Kd does the source give for B36 here?
**A.** 10.1 ± 0.7 nM

**Q.** B37 was tested. Which Kd did it give?
**A.** 30.5 ± 9 nM

**Q.** B38 was tested. Which Kd did it give?
**A.** 100 ± 40 nM

**Q.** For B39, which Kd is on record?
**A.** 38 ± 17 nM

**Q.** Which Kd does the source give for B40 here?
**A.** 38 ± 7 nM
